Several values for one entry are separate records, joined by “and”; a condition that tells them apart may be missing. Equal values may be shown once. Read-outs that look alike come from different tables or passages of the source.
Columns and labels:
[1] = target: T1, human interleukin 13 receptor subunit alpha 2 (IL-13RA2) (human, UniProt Q14627 27-380); experiment: cell-based or functional assay
T1 sequence (looked up): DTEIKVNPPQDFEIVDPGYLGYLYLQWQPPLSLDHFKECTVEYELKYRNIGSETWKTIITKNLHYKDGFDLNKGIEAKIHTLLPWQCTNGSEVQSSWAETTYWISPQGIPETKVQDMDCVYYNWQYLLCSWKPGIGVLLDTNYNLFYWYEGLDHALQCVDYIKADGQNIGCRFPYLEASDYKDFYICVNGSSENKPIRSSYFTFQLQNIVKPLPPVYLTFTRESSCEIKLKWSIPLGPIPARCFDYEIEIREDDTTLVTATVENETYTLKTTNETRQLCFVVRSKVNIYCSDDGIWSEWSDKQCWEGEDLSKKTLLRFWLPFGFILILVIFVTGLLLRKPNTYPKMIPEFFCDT

[2] = target: T1, human interleukin 13 receptor subunit …; experiment: FACS on A375 cells
Protocol: (§1) A375 cells that endogenously expressed IL-13RA2, were harvested from flasks. 100 μl of 1×10⁶ cells/ml of cells were incubated with primary humanized antibodies in 4-fold serial dilutions starting from 200 nM to 0.003 nM for 30 minutes on ice. After being washed with 200 μl of FACS buffer twice, cells were incubated with secondary antibody for 30 minutes on ice. Cells were washed with 200 μl of FACS buffer twice and analyzed by FACS.

[3] = target: T1, human interleukin 13 receptor subunit …; experiment: FACS on A375 cells; remark: listed apart in the source
Protocol: as §1, with “primary chimeric” for “primary humanized”, “in 3-fold” for “in 4-fold”, “from 300” for “from 200”, “to 0.002” for “to 0.003”
As shown in FIG. 3 and Table 4, the chimeric antibodies bound to human IL-13RA2 at different EC50.

- internalization EC50 (pHAb dye), A375 cells [1]: 1.06 nM
- internalization EC50 (pHAb dye), CHO-K1/H_IL-13RA2 cells [1]: 2.92 nM
- internalization EC50 (pHAb dye), HEK-293/H IL-13RA2 cells [1]: 2.18 nM
- internalization Top (MFI), A375 cells [1]: 5260 MFI
- internalization Top (MFI), CHO-K1/H_IL-13RA2 cells [1]: 18700 MFI
- internalization Top (MFI), HEK-293/H IL-13RA2 cells [1]: 19500 MFI
- EC50 [2]: 360 pM and 581 pM
- EC50 [3]: 850 pM
- Top (MFI) [3]: 16900 MFI
B1: xi72B4H4 hIgG1 (antibody, V domains shown)
VH: QVQLQQPGAERVRPGASVKLSCKASGYTFTNYWMNWVKQRPEQGLEWIGRIDPYAGETHYNQKFKDKAILTVDKSSSTAYMQLRSLTSEDSAVYYCARGYGDSYGMDHWGQGTSVTVSS
VL: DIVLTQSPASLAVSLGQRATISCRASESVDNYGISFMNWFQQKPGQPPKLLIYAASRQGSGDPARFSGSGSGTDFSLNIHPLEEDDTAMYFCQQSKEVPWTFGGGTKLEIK

Reference: patent US20250163164A1 (LANOVA MEDICINES DEVELOPMENT, published 2025)
